The values that follow come from patent publication CN115141278A (BIO THERA SOLUTIONS LTD, dated 2022).

What is called EC50 is the concentration that produces a half-maximal response. Low values mean a more potent agent, high ones a less potent agent.

The assay has as its target T1, 食蟹猴VISTA-Fc (cynomolgus monkey, UniProt A0A7N9IB00 33-194).
T1 construct: Bought reagent; also called VISTA-Fc(食蟹猴，Sino biological Inc); not shown: Fc part
T1 sequence: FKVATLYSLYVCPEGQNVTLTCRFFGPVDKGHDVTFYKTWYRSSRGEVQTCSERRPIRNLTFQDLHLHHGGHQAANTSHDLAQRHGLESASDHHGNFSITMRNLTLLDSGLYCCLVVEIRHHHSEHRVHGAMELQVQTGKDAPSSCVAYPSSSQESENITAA
Nature of the assay: ELISA on coated VISTA-Fc, anti-human kappa-HRP detection.

B1: 阳性参照抗体VSTB112 (antibody, V domains shown)
VH: QVQLVQSGAEVKKPGSSVKVSCKASGGTFSSYAISWVRQAPGQGLEWMGGIIPIFGTANYAQKFQGRVTITADESTSTAYMELSSLRSEDTAVYYCARSSYGWSYEFDYWGQGTLVTVSS
VL: DIQMTQSPSSLSASVGDRVTITCRASQSIDTRLNWYQQKPGKAPKLLIYSASSLQSGVPSRFSGSGSGTDFTLTISSLQPEDFATYYCQQSAYNPITFGQGTKVEIKR
B1 returned an EC50 of 0.065 µg/mL.
